In patent publication US20230391886A1 one finds Kd data, which are given here for one molecule.

The experiment has as its target MUC18 (target of JM1-24-3 as used in Bio-Layer Interferometry) (Homo sapiens (Human)) (UniProt P43121). The experiment in a line: Bio-Layer Interferometry, Octet RED384. In general terms: Biolayer interferometry detects binding as a change in optical thickness at a sensor tip.

B1: JM1-24-3 (antibody, V domains shown)
VH: MSCKASGYAFTSYWMNWIKERPGQGLEWIGAIDPFNGYTEYNHKFKDKAILTADNSSSTVYMQLSSLTSEDSAVYYCARWGGRLYFDYWGQGTTLTVSS
VL: MTQSPSSMYASLGERVTITCKASQDINSFLSWFQQKPGKSPKTLIYRANRLVDGVPSRFSGSGSGQDYSLTISSLEYEDMGIYYCLQYDEFPYTFGGGTKLEIKR
What is called Kd is a measure of binding affinity in units of concentration. Read a high Kd as weaker binding. B1 returned an equilibrium dissociation constant (Kd) of 1.6 nM.
